From US20220289830A1 (STAIDSON BEIJING BIOPHARMACEUTICALS, published 2022)

Legend:
[1] = molecular target: T1, recombinant Pseudomonas aeruginosa PcrV, full-length (PAO), His-tagged (Pseudomonas aeruginosa); test: SPR (BIACORE)
[2] = molecular target: T1, recombinant Pseudomonas aeruginosa …; test: BLI
[3] = molecular target: T2, native PcrV on live Pseudomonas aeruginosa (strains O6-57/66, O11-PA103, O1-52/66, O16-177/81) (Pseudomonas aeruginosa); test: cell-based or functional assay
[4] = molecular target: T2, native PcrV on live Pseudomonas …; test: cell-based or functional assay; remark: listed apart in the source
[5] = molecular target: T2, native PcrV on live Pseudomonas …; test: cell-based or functional assay; remark: listed apart in the source
[6] = molecular target: T1, recombinant Pseudomonas aeruginosa …; test: ELISA, PcrV coated on the plate, goat anti-human Fc-AP detection
[7] = molecular target: T2, native PcrV on live Pseudomonas …; test: cell-based or functional assay; remark: listed apart in the source

B1: 8C1 (antibody, V domains shown)
VH: EVQLLESGGGLVQPGGSLRLSCTASGFTFSDNHMSWVRQAPGKGLDWVSGISESGGSTNYADSVKGRFSTSRDNSKSTLYLDMNSLRAEDTAIYYCAKGRFSTNSAHFFRAVYGMDVWGQGTAVTVSS
VL: DIQLTQSPSSLSASVGDRVTITCRASQGISSYLAWYQQKPGKAPKLLIYAASTLQSGVPSRFSGSGSGTDFTLTISSLQPEDFATYYCQQLSSYPLTFGGGTKVEIK
notes: also called optimized anti-PcrV mAb clone 8C1
[1]
  Kd: 0.0316 nM
[2]
  Kd: 0.33 nM
[3]
  A549 cell lysis Average IC50 over the strains: 1.05 µg/mL
  A549 cell lysis IC50, strain O6-57/66: 0.721 µg/mL
  A549 cell lysis IC50, strain O11-PA103: 1.54 µg/mL
  A549 cell lysis IC50, strain O16-177/81: 0.881 µg/mL
[4]
  A549 cytotoxicity assay IC50 (P. aeruginosa strain PA103(O11)): 1.94 µg/mL
[5]
  RBC lysis assay IC50 (P. aeruginosa strain 57/66(O6)): 0.12 µg/mL
[6]
  EC50: 0.111 µg/mL
[7]
  RBC lysis Average IC50 over the three strains: 0.266 µg/mL
  RBC lysis IC50, strain O1-52/66: 0.424 µg/mL
  RBC lysis IC50, strain O6-57/66: 0.121 µg/mL
  RBC lysis IC50, strain O16-177/81: 0.252 µg/mL
